For assay [1], the target named is V12.Pf3.1 recombinant HBc chimer particle (hepatitis B virus, subtype ayw; Plasmodium falciparum). Description: particle ELISA, end point titer dilution of MoAb 2A10; reference V12.Pf3.
For assay [2], the target named is V12.Pf3.11 recombinant HBc chimer particle (hepatitis B virus, subtype ayw; Plasmodium falciparum). Description: particle ELISA, end point titer dilution of MoAb 2A10.
In assay [3] the target is V12.Pf3.3 recombinant HBc chimer particle (hepatitis B virus, subtype ayw; Plasmodium falciparum). The description is as above.
Assay [4] has as its target V12.Pf3.12 recombinant HBc chimer particle (hepatitis B virus, subtype ayw; Plasmodium falciparum). The assay is described as above.
The target in assay [5] is V12.Pf3.6 recombinant HBc chimer particle (hepatitis B virus, subtype ayw; Plasmodium falciparum). The assay is described as above.
In assay [6] the target is V12.Pf3.5 recombinant HBc chimer particle (hepatitis B virus, subtype ayw; Plasmodium falciparum). Described as above.
Assay [7] has as its target V12.Pf1 recombinant HBc chimer particle (hepatitis B virus, subtype ayw; Plasmodium falciparum). The description is as above.
The target in assay [8] is V12.Pf3.4 recombinant HBc chimer particle (hepatitis B virus, subtype ayw; Plasmodium falciparum). The assay is described as above.
Assay [9] has as its target V12.Pf3.1 recombinant HBc chimer particle (hepatitis B virus, subtype ayw; Plasmodium falciparum). Described as above.
The target in assay [10] is V12.Pf3.10 recombinant HBc chimer particle (hepatitis B virus, subtype ayw; Plasmodium falciparum). The description is as above.
In assay [11] the target is V12.Pf3.2 recombinant HBc chimer particle (hepatitis B virus, subtype ayw; Plasmodium falciparum). Described as above.
Assay [12] addresses V12.Pf3 recombinant HBc chimer particle (hepatitis B virus, subtype ayw; Plasmodium falciparum). The assay is described as above.
Assay [13] concerns the target V12.Pf3.9 recombinant HBc chimer particle (hepatitis B virus, subtype ayw; Plasmodium falciparum). Described as above.
Assay [14] addresses V12.Pf3.8 recombinant HBc chimer particle (hepatitis B virus, subtype ayw; Plasmodium falciparum). The assay is described as above.

As to MoAb 2A10 (antibody), the fold less antigenic than V12.Pf3 in [1] is 5 fold. The Antigenicity (end point titer, normalized so that the lowest titer is 1) came out at 5 fold in [2]; 5 fold in assay [3]; 5 fold in [4]; 5 fold in [5]; 5 fold in [6]; 33 fold in assay [7]. Further, the Antigenicity (end point titer, normalized so that the lowest titer is 1) in assay [8] worked out at 5 fold; in assay [9], 33 fold; in assay [10] it was 1 fold; in assay [11] it was 33 fold; in assay [12], 165 fold; in [13], 5 fold. Further, the Antigenicity (end point titer, normalized so that the lowest titer is 1) in assay [14] was determined as 5 fold.

The values are drawn from patent US20030054337A1.
